Here are results for 11 molecules from patent US20200165335A1 (Seagen, published 2020).

Substitutions are numbered along the chain they refer to. In names and notes the source's numbering stands. Several values for one entry are separate records, joined by “and”; a condition that tells them apart may be missing. Identical values can stand only once.

Test [1] concerns the target T1, human LIV-1 (human, UniProt Q13433 29-755).
T1 construct: also called hLIV-1; Q13433
T1 sequence: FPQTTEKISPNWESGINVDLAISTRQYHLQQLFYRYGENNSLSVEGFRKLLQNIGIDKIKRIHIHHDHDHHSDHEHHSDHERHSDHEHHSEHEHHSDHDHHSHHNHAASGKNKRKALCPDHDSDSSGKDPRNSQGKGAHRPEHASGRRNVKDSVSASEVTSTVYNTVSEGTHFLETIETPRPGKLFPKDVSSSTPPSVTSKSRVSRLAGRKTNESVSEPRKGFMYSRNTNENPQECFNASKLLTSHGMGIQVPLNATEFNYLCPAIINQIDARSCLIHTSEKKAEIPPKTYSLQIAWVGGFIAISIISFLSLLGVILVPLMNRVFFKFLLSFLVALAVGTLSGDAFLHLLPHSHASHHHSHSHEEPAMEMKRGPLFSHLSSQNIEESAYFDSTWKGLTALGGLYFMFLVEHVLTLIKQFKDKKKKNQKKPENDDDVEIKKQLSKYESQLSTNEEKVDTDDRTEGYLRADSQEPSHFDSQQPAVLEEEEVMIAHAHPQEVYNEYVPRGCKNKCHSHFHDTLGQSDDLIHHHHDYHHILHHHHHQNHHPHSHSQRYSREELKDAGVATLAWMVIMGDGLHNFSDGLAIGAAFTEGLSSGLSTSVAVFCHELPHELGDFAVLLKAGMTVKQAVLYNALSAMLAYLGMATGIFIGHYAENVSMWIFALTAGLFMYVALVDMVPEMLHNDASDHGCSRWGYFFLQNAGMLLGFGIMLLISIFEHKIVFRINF
Briefly: saturation binding, flow cytometry, comparison of the cell lines of Table 1. The protocol:
(§1) 1×10⁵ antigen expressing cells (either MCF7 cells (ATCC) expressing human LIV-1, a transfected CHO cell line expressing human LIV-1 or a transfected CHO cell line expressing cyno LIV-1) were aliquoted per well of a 96-well v-bottom plates. […] Cells were pelleted and washed 3× with PBS/BSA. The cells were then pelleted and resuspended in 125 μL of PBS/BSA. Fluorescence was analyzed by flow cytometry, using percent of saturated fluorescent signal to determine percent bound and to subsequently calculate apparent Kd.

Test [2] deals with T2, cynomolgus monkey LIV-1 (cynomolgus monkey, UniProt Q5R9M9 28-743 (Pongo abelii entry)).
T2 construct: Recombinant on transfected CHO cells; also called cyno LIV-1; cyLIV-1
T2 chain: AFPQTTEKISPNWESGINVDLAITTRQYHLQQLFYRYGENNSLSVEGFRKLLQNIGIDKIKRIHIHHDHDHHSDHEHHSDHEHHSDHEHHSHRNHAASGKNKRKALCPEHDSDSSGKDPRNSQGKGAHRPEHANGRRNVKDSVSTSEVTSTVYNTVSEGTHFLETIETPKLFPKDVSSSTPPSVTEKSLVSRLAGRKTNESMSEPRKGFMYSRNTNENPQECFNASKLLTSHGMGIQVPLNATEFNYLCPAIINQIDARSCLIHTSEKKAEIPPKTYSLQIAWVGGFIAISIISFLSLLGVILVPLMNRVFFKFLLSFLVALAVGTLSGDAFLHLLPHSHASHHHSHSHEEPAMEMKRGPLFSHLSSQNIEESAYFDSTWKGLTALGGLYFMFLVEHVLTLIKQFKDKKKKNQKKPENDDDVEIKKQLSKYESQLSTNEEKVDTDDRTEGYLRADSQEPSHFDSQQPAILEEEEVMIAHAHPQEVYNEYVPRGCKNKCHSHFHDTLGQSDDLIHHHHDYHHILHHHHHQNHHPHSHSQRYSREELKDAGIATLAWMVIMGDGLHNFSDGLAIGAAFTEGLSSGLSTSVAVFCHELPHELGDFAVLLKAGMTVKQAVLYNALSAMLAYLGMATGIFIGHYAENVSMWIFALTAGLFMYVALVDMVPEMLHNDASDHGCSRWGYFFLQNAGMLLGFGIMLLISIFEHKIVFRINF
Briefly: saturation binding of AF647-labelled antibody, flow cytometry, CHO (cyLIV-1) cells. The protocol: as §1

The target in test [3] is T3, human LIV-1 (UniProt Q13433 29-755).
T3 chain: T1 sequence
The experiment in a line: competition binding on CHO hLIV1 cells.

Test [4] addresses T1, human LIV-1. The experiment in a line: saturation binding of AF647-labelled antibody, flow cytometry, CHO (hLIV-1) cells. The protocol:
as §1

The target in test [5] is T1, human LIV-1. The experiment in a line: saturation binding of AF647-labelled antibody, flow cytometry, 293F (hLIV-1) cells.
Test [6] concerns the target T1, human LIV-1. Briefly: saturation binding of AF647-labelled antibody, flow cytometry, MCF-7 (ATCC) cells, endogenous hLIV-1. The protocol: as §1
Test [7] deals with T3, human LIV-1. Briefly: saturation binding, flow cytometry on MCF7 cells; AF-labeled.
Test [8] addresses T1, human LIV-1. Briefly: saturation binding, flow cytometry, MCF7 cells. The protocol: as §1
The target in test [9] is T1, human LIV-1. Briefly: competition flow cytometry, CHO cells expressing recombinant LIV-1, vs 5 nM AF647-labelled BR2-22a. The protocol: 1×10⁵ CHO cells expressing recombinant LIV-1 in PBS were aliquoted into each well of a 96-well v-bottom plates on ice. […] Cells were pelleted and washed 3 times with PBS. The cells were then pelleted and resuspended in 125 μL of PBS/BSA. Fluorescence was analyzed by flow cytometery, using percent of saturated fluorescent signal to determine percent labeled humanized BR2-22a antibody bound and to subsequently extrapolate the EC50 by fitting the data to a sigmoidal dose-response curve with variable slope.
All permutations of these five heavy chains and six light chains were then tested in a competition assay compared with BR2-22a (see FIG. 17).

Test [10] deals with T1, human LIV-1. The experiment in a line: competition flow cytometry, CHO cells expressing human LIV-1, vs 5 nM AF647-labelled BR2-14a. The protocol: (§2) 1×10⁵ CHO cells expressing recombinant human LIV-1 in PBS/BSA were aliquoted into each well of a 96-well v-bottom plates on ice. […] Cells were pelleted and washed 3 times with PBS/BSA. The cells were pelleted and resuspended in 125 μL of PBS/BSA. Fluorescence was analyzed by flow cytometry, using percent of saturated fluorescent signal to determine percent labeled murine LIV-1 mAb bound and to subsequently extrapolate the EC50 by fitting the data to a sigmoidal dose-response curve with variable slope.

Test [11] addresses T1, human LIV-1. Briefly: comparison of the EC50s of Table 3, CHO cells expressing human LIV-1. The protocol: as §2
Test [12] concerns the target T2, cynomolgus monkey LIV-1. The experiment in a line: EC50 determination, CHO cells expressing recombinant cyno LIV-1. The protocol: 1×10⁵ CHO cells expressing recombinant cyno LIV-1 in PBS were aliquoted in each well of a 96-well v-bottom plates on ice. […] Cells were pelleted and washed 3 times with PBS. The cells were pelleted and resuspended in 125 μL of PBS/BSA. Fluorescence was analyzed by flow cytometry, using percent of saturated fluorescent signal to determine percent labeled murine LIV-1 mAb bound and to subsequently extrapolate the EC50 by fitting the data to a sigmoidal dose-response curve with variable slope.

B1: murine LIV-1 monoclonal antibody BR2-14a (antibody, V domains shown)
VH: QVQLQQSGAELVRSGASVKLSCTASGFNIEDYYMHWVKQRPKQGLEWIGWIDPENGDTEYAPTFQGKATMTADTSSNTAYLQLSSLTSEDTAVYYCNVHDAHYGTWFAYWGQGTLVTVSA
VL: DVLMTQTPLSLPVSLGDQASISCRSSQSIIRNDGNTYLEWYLQKPGQSPKLLIYRVSNRFSGVPDRFSGSGSGTDFTLKISRVEAEDLGVYYCFQGSHVPYTFGGGTKLEIKR
notes: Mouse monoclonal from hybridoma ATCC PTA-5705A; also called parental murine mAb; murine LIV-1 mAb
In the case of B1, the “fold lower dissociation constant for non-recombinant LIV-1 of a human cell line than for recombinant LIV-1” value in the test with human LIV-1 [1] is approximately 5 fold. The Kd was 14 nM with cynomolgus monkey LIV-1 [2]; 12.5 nM with human LIV-1 [4]; 2.7 nM in the test with human LIV-1 [5]; 2.4 nM in the test with human LIV-1 [6]; 0.8 µg/mL and 5.8 nM in the test with human LIV-1 [7]; 2.9 nM in the test with human LIV-1 [8]. Besides, in the test with human LIV-1 [3], the midpoint of the response, the EC50, lay at 3.42 µg/mL.

B2: humanized BR2-22a antibody HELA (antibody, V domains shown)
VH: QVQLVQSGAEVKKPGASVKVSCKASGLNIEDYYMHWVRQAPGQGLEWIGWIDPENGDTEYGPKFQGKATMTADTSINTAYMELSRLRSDDTAVYYCTVHNAHYGTWFAYWGQGTLVTVSS
VL: DVVMTQSPLSLPVTLGQPASISCRSSQSLLHSSGNTYLEWFQQRPGQSPRRLIYKISTRFSGVPDRFSGSGSGTDFTLKISRVEAEDVGVYYCFQGSHVPYTFGGGTKVEIKR
notes: also called hLIV-22 HE + hLIV-22 LA
Consider B2, for which, in the test with human LIV-1 [9], the EC50 was determined as 68.2 µg/mL.

B3: humanized BR2-14a antibody HELE (antibody, V domains shown)
VH: B2 VH with L27F, G61A, K63T, T97N, N100D
VL: B2 VL with L29I, L30I, H31R, S32N, S33D, R51L, K55R, I56V, T58N
notes: also called hLIV-1 HE + hLIV-1 LE
Take B3: in the test with human LIV-1 [10], the EC50 is 0.3 µg/mL. The “fold better binding than the next humanized antibody HBLF” value with human LIV-1 [11] was not below 2 fold.

B4: humanized BR2-22a antibody HELG (antibody, V domains shown)
VH: B2 VH
VL: B2 VL with F41Y, R51P
notes: also called hLIV-22 HE + hLIV-22 LG
As to B4, in the test with human LIV-1 [9], the EC50 stood at 0.2 µg/mL.

B5: humanized BR2-22a antibody HELF (antibody, V domains shown)
VH: B2 VH
VL: B2 VL with F41Y, Q42L, R50K, R51P
notes: 15 backmutations; also called hLIV-22 HE + hLIV-22 LF; HELF historic control
On to B5, for which the EC50 with human LIV-1 [9] is 0.3 µg/mL.

B6: humanized BR2-14a antibody HBLB S239C (antibody, human IgG1, kappa, V domains shown)
VH: QVQLVQSGAEVKKPGASVKVSCKASGYTIEDYYMHWVRQAPGQGLEWMGWIDPENGDTEYAPTFQGRVTMTRDTSINTAYMELSRLRSDDTAVYYCARHDAHYGTWFAYWGQGTLVTVSS
VL: B2 VL with L29I, L30I, H31R, S32N, S33D, F41Y, K55R, I56V, T58N
notes: also called LIV-14d; hLIV-14 HBLB S239C
Take B6: the EC50 in the test with human LIV-1 [3] came out at 0.419 µg/mL. Also, in the test with cynomolgus monkey LIV-1 [12], the binding result was “binds”.

B7: humanized BR2-22a antibody HELE (antibody, V domains shown)
VH: B2 VH
VL: B2 VL with R51P
notes: also called hLIV-22 HE + hLIV-22 LE
As for B7, the EC50 with human LIV-1 [9] worked out at 25.1 µg/mL.

B8: humanized BR2-22a antibody HGLF (antibody, V domains shown)
VH: B6 VH with Y27L, A61G, T63K, R98V, D100N
VL: B2 VL with F41Y, Q42L, R50K, R51P
notes: also called hLIV-22 HG + hLIV-22 LF
As to B8, in the test with human LIV-1 [9], the 50% effective concentration (EC50) is 0.4 µg/mL.

B9: humanized BR2-22a antibody HFLF (antibody, V domains shown)
VH: B6 VH with Y27L, A61G, T63K, N77S, R98V, D100N
VL: B2 VL with F41Y, Q42L, R50K, R51P
notes: also called hLIV-22 HF + hLIV-22 LF
As for B9, in the test with human LIV-1 [9], the EC50 worked out at 0.8 µg/mL.

B10: humanized BR2-22a antibody HELC (antibody, V domains shown)
VH: B2 VH
VL: B2 VL with Q42L
notes: also called hLIV-22 HE + hLIV-22 LC
As to B10, in the test with human LIV-1 [9], the EC50 is 65.7 µg/mL.

B11: humanized BR2-22a antibody HFLG (antibody, V domains shown)
VH: B6 VH with Y27L, A61G, T63K, N77S, R98V, D100N
VL: B2 VL with F41Y, R51P
notes: also called hLIV-22 HF + hLIV-22 LG
In the case of B11, the EC50 with human LIV-1 [9] came out at 0.8 µg/mL.
